In experiment [1] the target is T1, SAI/II antigen (SAI/II adhesion of S. mutans) (Streptococcus mutans, UniProt P23504 39-1532).
T1 construct: Coated on ELISA plates at 1 ug/ml in PBS
T1 sequence (looked up): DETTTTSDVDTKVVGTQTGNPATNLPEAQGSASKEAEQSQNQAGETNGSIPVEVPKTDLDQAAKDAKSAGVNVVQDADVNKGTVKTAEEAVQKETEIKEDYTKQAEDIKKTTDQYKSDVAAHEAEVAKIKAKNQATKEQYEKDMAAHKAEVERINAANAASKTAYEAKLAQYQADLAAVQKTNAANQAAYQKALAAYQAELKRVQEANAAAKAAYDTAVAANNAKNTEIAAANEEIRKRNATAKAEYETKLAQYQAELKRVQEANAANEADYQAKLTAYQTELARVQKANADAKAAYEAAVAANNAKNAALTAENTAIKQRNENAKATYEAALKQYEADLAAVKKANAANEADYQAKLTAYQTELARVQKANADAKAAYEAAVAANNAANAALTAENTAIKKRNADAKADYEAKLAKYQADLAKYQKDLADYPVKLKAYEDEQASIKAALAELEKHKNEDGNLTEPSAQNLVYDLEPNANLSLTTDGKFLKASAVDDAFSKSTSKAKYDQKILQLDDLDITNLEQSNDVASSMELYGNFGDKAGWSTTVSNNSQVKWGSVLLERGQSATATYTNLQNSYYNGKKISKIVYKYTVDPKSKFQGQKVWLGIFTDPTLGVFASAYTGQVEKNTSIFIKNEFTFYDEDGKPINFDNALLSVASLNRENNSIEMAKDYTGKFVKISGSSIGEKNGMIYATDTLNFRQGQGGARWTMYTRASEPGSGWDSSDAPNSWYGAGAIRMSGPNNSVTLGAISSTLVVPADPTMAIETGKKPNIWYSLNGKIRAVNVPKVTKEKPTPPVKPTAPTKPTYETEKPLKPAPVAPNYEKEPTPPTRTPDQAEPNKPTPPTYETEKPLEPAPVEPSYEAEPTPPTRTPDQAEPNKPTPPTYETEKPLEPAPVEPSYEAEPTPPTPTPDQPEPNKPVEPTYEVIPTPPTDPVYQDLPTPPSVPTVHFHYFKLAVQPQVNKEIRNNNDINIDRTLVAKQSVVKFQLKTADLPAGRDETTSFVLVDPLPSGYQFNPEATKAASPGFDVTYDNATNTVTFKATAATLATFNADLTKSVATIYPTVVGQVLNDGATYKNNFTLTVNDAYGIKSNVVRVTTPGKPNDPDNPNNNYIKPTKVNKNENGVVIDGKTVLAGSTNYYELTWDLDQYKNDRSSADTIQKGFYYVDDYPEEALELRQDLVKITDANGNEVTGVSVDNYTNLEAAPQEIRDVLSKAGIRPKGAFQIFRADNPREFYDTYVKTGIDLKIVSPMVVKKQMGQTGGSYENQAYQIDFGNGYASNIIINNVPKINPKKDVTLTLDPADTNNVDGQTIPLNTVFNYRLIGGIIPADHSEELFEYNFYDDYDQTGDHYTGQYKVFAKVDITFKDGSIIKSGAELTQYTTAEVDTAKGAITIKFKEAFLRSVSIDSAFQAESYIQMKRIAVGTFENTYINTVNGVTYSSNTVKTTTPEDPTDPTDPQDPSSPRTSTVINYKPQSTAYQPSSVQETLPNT
Nature of the experiment: ELISA, SAI/II coated, whole bacterial cells; integrated strain against plasmid strain (same polypeptide, different amount). For orientation: An ELISA detects its analyte on a solid surface through an enzyme-linked reagent.

Experiment [2] has as its target T1, SAI/II antigen (SAI/II adhesion of S. …). Kind of experiment: ELISA, SAI/II coated, culture supernatant; integrated strain against plasmid strain (same polypeptide, different amount).

B1: surface anchored scFv anti-SAI/II (E-tagged) fused to the prtP anchor region, displayed on L. paracasei pAF900 (plasmid) or L. paracasei EM181 (chromosomally … (scFv)
scFv: AIVEGSAAQPAMDAQVKLQESGPDLVKPGASVKISCKASGYTFTDYNIHWVKQSRGKSLEWIGYIYPYNGNTYYNQKFKNKATLTVDNSSTSAYMELRSLTPEDSAVYYCATYFDYWGQGTTVTVSSGGGGSGGGGSGGGGSDIELTQSPAIMSASPGEKVTITCSASSSVSYMHWFQQKPGTSPKLWLYSTSNLASGVPARFSGSGSGTSYSLTISRMEAEDAATYYCHQRTSYPYTFGGGTKLEIKRAAAAGAPVPYPDPLEPRAAASKKTSLLNQLQSVKAALGTDLGNQTDPSTGKTFMAALDDLVAQAQAGTQTADQLQASLAKVLDAVLAKLAEGIKAATPAEVGNAKDAATGKTWYADIADTLTSGQASADASDKLAHLQALQSLKTKVAAAVEAAKTAGKGDDTSGTSDKGGGQGTPAPAPGDTGKNKGDEGSQPSSGGNIPTKPATTTSTSTDDTTDRNGQHTSGKGALPKTAETTERPAFGFLGVIVVSLMGVLGLKRKQREE
modifications: On the cells the chain is covalently linked to the cell wall through the prtP anchor (LPXTG-type motif, here LPKTA at residues 478-482).
notes: Same polypeptide from the plasmid strain and the integrated strain (pEM181 = pEM76 with the expression cassette of pAF900); tested as whole bacterial cells; (precursor, before any processing on anchoring to the cell wall); also called pEM181
Consider B1, for which, in experiment [1], the “fold lower binding level than L. paracasei pAF900” value was under 16 fold.

B2: secreted and attached scFv anti-SAI/II (E-tagged) fused to the middle region and C-terminal domain of APF, produced by L. paracasei pAF400 (plasmid) or L. … (scFv)
scFv: AIVEGSAAQPAMDAQVKLQESGPDLVKPGASVKISCKASGYTFTDYNIHWVKQSRGKSLEWIGYIYPYNGNTYYNQKFKNKATLTVDNSSTSAYMELRSLTPEDSAVYYCATYFDYWGQGTTVTVSSGGGGSGGGGSGGGGSDIELTQSPAIMSASPGEKVTITCSASSSVSYMHWFQQKPGTSPKLWLYSTSNLASGVPARFSGSGSGTSYSLTISRMEAEDAATYYCHQRTSYPYTFGGGTKLEIKRAAAAGAPVPYPDPLEPRAAASEELYHTQAAVTQAPVQHQTQTENTNSAATTTAANNTNTQTTTSTVSGSEASAKEWIAGRESGGSYGASNGQYVGKYQLSASYLNGDYSAANQERVADNYVKGRYGSWTAAKAFWQANGWY
notes: Same polypeptide from the plasmid strain and the integrated strain (pEM171 = pEM76 with the expression cassette of pAF400); tested as culture supernatant and as whole cells (attached form); also called pEM171
As to B2, in experiment [2], the “fold reduction in binding activity against the corresponding plasmid system (L. paracasei pAF400)” value is 4 fold.

B3: secreted scFv anti-SAI/II (E-tagged) produced by L. paracasei pAF100 (plasmid) or L. paracasei EM182 (chromosomally integrated) (scFv)
scFv: AIVEGSAAQPAMDAQVKLQESGPDLVKPGASVKISCKASGYTFTDYNIHWVKQSRGKSLEWIGYIYPYNGNTYYNQKFKNKATLTVDNSSTSAYMELRSLTPEDSAVYYCATYFDYWGQGTTVTVSSGGGGSGGGGSGGGGSDIELTQSPAIMSASPGEKVTITCSASSSVSYMHWFQQKPGTSPKLWLYSTSNLASGVPARFSGSGSGTSYSLTISRMEAEDAATYYCHQRTSYPYTFGGGTKLEIKRAAAAGAPVPYPDPLEPRAA
notes: Same polypeptide from the plasmid strain and the integrated strain (pEM182 = pEM76 with the expression cassette of pAF100); tested as culture supernatant; also called pEM182
With B3, the “fold reduction in binding activity against the corresponding plasmid system (L. paracasei pAF100)” value in experiment [2] was at least 8 fold.

The values above are taken from patent US20130323819A1 (HERA PHARMACEUTICALS, published 2013).
